# Source: patent US20170306031A1 (NGM BIOPHARMACEUTICALS, published 2017)
# T1: human GFRAL (analyte in Biacore assays) (human, UniProt Q6UXV0 19-351, limits assumed)
# T1 construct: injected in solution over captured antibody; also called hGFRAL
# T1 sequence: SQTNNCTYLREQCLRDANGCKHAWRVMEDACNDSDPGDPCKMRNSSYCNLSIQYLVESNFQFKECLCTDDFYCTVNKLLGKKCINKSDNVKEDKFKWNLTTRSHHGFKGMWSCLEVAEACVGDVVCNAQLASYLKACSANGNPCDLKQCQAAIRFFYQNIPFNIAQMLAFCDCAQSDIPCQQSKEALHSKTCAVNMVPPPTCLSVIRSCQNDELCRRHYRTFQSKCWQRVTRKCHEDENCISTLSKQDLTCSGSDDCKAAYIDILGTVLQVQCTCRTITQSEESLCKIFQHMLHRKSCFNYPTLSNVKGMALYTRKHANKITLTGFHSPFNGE
# T2: human GFRAL expressed on cells (human, UniProt Q6UXV0 20-394)
# T2 sequence: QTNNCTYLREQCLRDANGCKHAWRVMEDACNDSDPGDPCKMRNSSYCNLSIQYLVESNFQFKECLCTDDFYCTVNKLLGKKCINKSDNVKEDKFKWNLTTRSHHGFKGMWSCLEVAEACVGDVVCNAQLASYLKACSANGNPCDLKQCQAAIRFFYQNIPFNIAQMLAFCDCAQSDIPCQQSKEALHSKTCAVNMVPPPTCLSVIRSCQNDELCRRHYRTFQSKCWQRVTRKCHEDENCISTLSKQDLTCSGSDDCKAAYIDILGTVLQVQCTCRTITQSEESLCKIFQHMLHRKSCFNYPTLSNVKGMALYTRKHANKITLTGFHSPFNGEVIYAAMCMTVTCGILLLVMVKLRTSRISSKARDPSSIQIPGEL
# T3: mouse GFRAL (analyte in Biacore assays) (mouse, UniProt Q6SJE0 20-349, limits assumed)
# T3 construct: injected in solution over captured antibody
# T3 sequence: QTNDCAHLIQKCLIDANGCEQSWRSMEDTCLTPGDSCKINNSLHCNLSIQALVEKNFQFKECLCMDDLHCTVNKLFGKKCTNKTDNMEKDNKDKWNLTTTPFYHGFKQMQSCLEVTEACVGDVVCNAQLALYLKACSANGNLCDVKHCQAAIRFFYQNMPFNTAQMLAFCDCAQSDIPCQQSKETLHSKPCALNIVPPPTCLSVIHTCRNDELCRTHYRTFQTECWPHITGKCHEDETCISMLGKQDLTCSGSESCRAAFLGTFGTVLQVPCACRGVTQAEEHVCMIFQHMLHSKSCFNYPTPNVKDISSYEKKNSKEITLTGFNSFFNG
# B1: humanized anti-GFRAL antibody HC-375g/LC-375a (antibody, IgG1, V domains shown)
# VH: QVQLVQSGAEVKKPGSSVKVSCKASGYTFTDYYINWVRQAPGQGLEWIARIYPGNGNTYHNEKFKGRATLTADKSTSTAYMELSSLRSEDTAVYYCAREGLYYDYDRYFDYWGQGTLVTVSS
# VL: DIVMTQSPDSLAVSLGERATINCRASESVDTYGNSFMHWYQQKPGQPPKLLIYLASNLESGVPDRFSGSGSGTDFTLTISSLQAEDVAVYYCHQNNEDPPAFGGGTKVEIK
# notes: humanized 5F12
# B2: humanized anti-GFRAL antibody HC-375g/LC-375j (antibody, IgG1, V domains shown)
# VH: B1 VH
# VL: DIVLTQSPLSLPVTLGQPASISCRASESVDTYGNSFMHWYQQRPGQSPRLLIYLASNLESGVPDRFSGSGSRTDFTLKISRVEAEDVGVYYCHQNNEDPPAFGGGTKVEIK
# notes: humanized 5F12
# B3: antibody designated 1B3 (antibody, V domains shown)
# VH: QVHLQQPGAELVKPGASVKLSCKASGFTFTGYNINWVRLRPEQGLEWIGWIFPGDDNAKYNEKFKGKATLTTDKSSNTAYMQLSRLTSEDSAVYFCARTPVLSNYFDYWGQGTTLTVSS
# VL: DIQMTQSPSSLSASLGGKVTITCKASQDISKYISWYQHKPGKSPRLLIHYTSTLQPGIPSRFSGSGSGRDYSFSISNLEPEDIATYYCLQYDNLYTFGGGTKLEIK
# notes: mouse hybridoma monoclonal
# B4: antibody designated 2B11 (antibody, V domains shown)
# VH: DVQLQESGPGLVKPSQSLSLTCSVTGYSITSGYYWNWIRQFPGNKLEWMGHIANDGSNYYNPFLKHRVSITRDTSKNQFFLKLNSVTIQDTATYYCARGGSYFDYVDYWGQGTTLTVSS
# VL: DIQMTQTTSSLSASLGDRVTINCRASQDISNYLNWYQQKPDGTVKLLIYYTSRLHSGVPSRFSGSGSGTDYSLTITNLEQEDIATYFCQQGNTLPFTFGSGTKLEIK
# notes: mouse hybridoma monoclonal
# B5: antibody designated 6N16 (antibody, V domains shown)
# VH: QVQLQQSGSELVKPGTSMKLSCKASGYTFTSYNINWVRLRPEQGLEWIGWIFPGDDSIKYNENFRGKATLTTDKSSSTAYMHLSRLTSDDSAVYFCARSGIFYGNNFAYWGQGTLVTVSA
# VL: DVVMTQAPLILSVTIGQPASISCKSSQSLLDGDGETYLSWLLQRPGQSPKRLIYLVSKLDSGVPDRFTGSGSGTDFTLKISRVEAEDLGVYYCCQSTHFPLTFGAGTKLELK
# notes: mouse hybridoma monoclonal
# B6: antibody designated 8C10 (antibody, V domains shown)
# VH: QVQLQQSGVELARPGAAVKLSCKASGYTFANYGLTWVKQRTGQGLEWIGEIYPGSGHTHYNEDFKGKATLTADRSSSTAYMELRSLTSEDSAVYFCARRIQLLLPVGGFVYWGQGTLVTVSA
# VL: DFVLTQSPATLSVTPGDSVSLSCRASQSISNNLHWYQQKSHESPRLLIKYASQSISGIPSRFSGSGSGTDFTLSINSVETEDFGVYFCQQSNSWPHTFGGGTKLEIK
# notes: mouse hybridoma monoclonal
# B7: antibody designated 6G9 (antibody, V domains shown)
# VH: QVQLHQPGAELVKPGASVKLSCKTSGYTFTSYWMQWVKQRPGQGLEWIGEIDPSDSYTNYNQKFKGKATLTVDTSSTTAYMQLSSLTSEDSAVYYCARPLDRSAYYFDYWGQGTTLTVSS
# VL: DIVLTQSPASLAVSLGQRATISCRASESVDFSGNSFMHWYQQKPGQPPKLLIYRASNLDSGIPARFSGVGSRTDFTLTINPVEADDVATYYCQQSNEDPYTFGGGTKLEIE
# notes: mouse hybridoma monoclonal
# B8: antibody designated P1B6 (antibody, V domains shown)
# VH: EVQLQQSGPELVKPGASVKMSCKASGYTFTDYYMNWVKQTHGKSLEWIGDINPNNGGPIYNQKFKGKATLTVDKSSSTAYMELRSLTSEDSAVYYCARSDSAWFTYWGQGTLVTVSA
# VL: QIVLTQSPAIMSASPGEKVTMTCSASSSVSYMYWYQQKPGSSPRLLIYDTSNLASGVPVRFSGSGSGTFYSITISRMEAEDAATYYCQQWNSYPPTFGGGTKLEIK
# notes: mouse hybridoma monoclonal
# B9: antibody designated 2I23 (antibody, V domains shown)
# VH: QAQLQQSGAELVKPGASVKLSCKASGYSFTSYNIDWVRQRPEQGLEWIGWIFPGDGSTKYNEKFKGQATLTTDKSSSTTYIHLSRLTSEDSAVYFCARSGIYYGSHFVYWGQGTLVTVSA
# VL: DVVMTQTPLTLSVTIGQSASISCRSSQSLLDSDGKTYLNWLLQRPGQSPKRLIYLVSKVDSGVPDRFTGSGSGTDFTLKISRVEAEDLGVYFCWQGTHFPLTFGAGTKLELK
# notes: mouse hybridoma monoclonal
# B10: antibody designated 1A3 (antibody, V domains shown)
# VH: EVQLQQSGPELVKPGASVKISCKASGFTFTDYYMNWVKQSHGKSLEWIGDIIPNNGVTSYNQKFKGKATLTVDKSSSTAYMELRSLTSEDSAVYYCAREWLLRGMDYWGQGTSVTVSS
# VL: DIVMTQAAFSNPVTLGTSASISCRSSKSLLHSNGITYLYWYLQKPGQSPQLLIYQMSNLASGVPDRFSSSGSGTDFTLRISRVEAEDVGVYYCAQHLELTWTFGGGTKLEIK
# notes: mouse hybridoma monoclonal
# B11: antibody designated P1H8 (antibody, V domains shown)
# VH: EVQLQQSGPELVKPGASVKISCKASGYTFTDYYMNWVKQSHGKSLEWIGDINPNNGGTTYNQKFKGKATLTVDKSSSTAYMELRSLTSEDSAVYYCARQGPWYFDVWGTGTTVTVSS
# VL: DVLMTQTPLSLPVSLGDQASISCRSSQTIVHSNGYTYLEWYLQKPGQSPKLLIYKVSNRFSGVPDRFSGSGSGTDFTLKISRVEAEDLGVYYCFQGSHVPWTFGGGTKLEIK
# notes: mouse hybridoma monoclonal
# B12: antibody designated P8G4 (antibody, V domains shown)
# VH: QVQLKQSGPGLVQPSQSLSITCTVSGFSLTSYGVHWVRQSPGKGLDWLGVLWSGGSTDYNAAFISRLSISKDNSKSQVFFKMNSLQADDTAIYYCARNFGDYWGQGTSVTVSS
# VL: QIVLTQSPAIMSASPGEKVTMTCSASSRVSYMHWYQQKSGTSPKRWIYDTSKLASGVPARFSGSGSGTSYSLTISSMEAEDAATYYCQQWNNNPPTFGAGTTLELK
# notes: mouse hybridoma monoclonal
# Biological target: T1, human GFRAL (analyte in Biacore assays)
# Assay: Biacore SPR, antibody captured, human GFRAL injected
# Procedure: Exemplary humanized anti-GFRAL antibodies identified in Example 6 were assayed for their binding affinity to human GFRAL. Binding affinity measurements were made in Biacore based assays. For example, equilibrium dissociation constant (KD) measurements were carried out with purified antibodies to evaluate their binding to human GFRAL. Using methods described in Example II, anti-mouse Fc antibody (Sigma-Aldrich, St. Louis, Mo.) was immobilized on all four flow cells of a CM5 chip using amine coupling reagents (GE Healthcare LifeSciences, Piscataway, N.J.). Purified humanized anti-GFRAL antibodies were captured (˜100 RUs) on flow cells 2, 3 and 4 using flow cell 1 as a reference. This was followed by injection of human GFRAL in PBS-P buffer) at a flow rate of 70 μL/min and the binding kinetics were evaluated at 25° C.
row,Kd,Binder
1,0.028 nM,B1
2,0.057 nM,B2

# Biological target: T2, human GFRAL expressed on cells
# Assay: cell-based or functional assay
row,"IC50, ERK phosphorylation in U2OS hGFRAL/hRET cells",Binder
1,0.57 nM,B3
2,0.46 nM,B4
3,0.27 nM,B5
4,0.28 nM,B6
5,0.17 nM,B7

# Biological target: T1, human GFRAL (analyte in Biacore assays)
# Assay: Biacore SPR, antibody captured, GFRAL injected
# Procedure: (§1) In addition, the binding affinity of antibodies to human and mouse GFRAL were measured. For example, antibodies were rank ordered based on their binding affinity to human GFRAL and mouse GFRAL by low resolution KD measurement by Biacore. Briefly, an anti-mouse Fc antibody (Sigma-Aldrich, St. Louis, Mo.) was immobilized on all four flow cells of a CM5 chip using amine coupling reagents (GE Healthcare LifeSciences, Piscataway, N.J.). Purified antibodies were captured (˜100 RUs) on flow cells 2, 3 and 4 using flow cell 1 as a reference. This was followed by injection of human or mouse GFRAL (25 nM in PBS-P buffer) at a flow rate of 70 μL/m in and monitoring the binding kinetics at 25° C.
# (§2) Binding affinity measurements were also made in additional Biacore based assays. For example, equilibrium dissociation constant (KD) measurements were carried out with purified antibodies to evaluate their binding to human GFRAL or mouse GFRAL. As mentioned above, anti-mouse Fc antibody (Sigma-Aldrich, St. Louis, Mo.) was immobilized on all four flow cells of a CM5 chip using amine coupling reagents (GE Healthcare LifeSciences, Piscataway, N.J.). Purified antibodies were captured (˜100 RUs) on flow cells 2, 3 and 4 using flow cell 1 as a reference. This was followed by injection of human or mouse GFRAL in PBS-P buffer) at a flow rate of 70 μL/min and the binding kinetics were evaluated at 25° C.
Kd,koff,Binder
< 0.1 nM,–,B3
0.14 nM,9.72e-05 s⁻¹,B8
0.23 nM,6.77e-05 s⁻¹,B9
0.11 nM,7.57e-05 s⁻¹,B10
0.21 nM,8.99e-05 s⁻¹,B11
0.1 nM,8.45e-05 s⁻¹,B4
0.16 nM,9.93e-05 s⁻¹,B5
< 0.1 nM,7.2e-05 s⁻¹,B6
< 0.1 nM,–,B7
0.21 nM,0.000276 s⁻¹,B12

# Biological target: T3, mouse GFRAL (analyte in Biacore assays)
# Assay: Biacore SPR, antibody captured, GFRAL injected
# Procedure: as §1, §2
Kd,koff,binding result,Binder
4.4 nM,0.00107 s⁻¹,–,B3
–,–,no binding,B8
–,–,no binding,B9
–,–,no binding,B10
–,–,no binding,B11
3.7 nM,0.00144 s⁻¹,–,B4
–,–,no binding,B5
–,–,no binding,B7
–,–,no binding,B12

# Biological target: T2, human GFRAL expressed on cells
# Assay: cell-based or functional assay
# Remark: another data set of the same source
row,"IC50, ELK1-luciferase reporter (hGFRAL/hRET)",Binder
1,4.14 nM,B3
2,7.18 nM,B9
3,7.9 nM,B4
4,1.62 nM,B5
5,1.79 nM,B6
6,2.65 nM,B7
